Data: publication PMC6168461, “Molecular architecture and regulation of BCL10-MALT1 filaments” (Nature Communications, 2018)

Columns and labels:
[1] = biological target: human BCL10 (full length), GST-tag removed (human) (UniProt O95999); test: cryo-EM structure; helical filaments of BCL10 (full length)-MALT1 (T29-G722); complex at 1 mg/ml, PreScission protease overnight at 12 °C, filaments separated by SEC; core map at 4.9 Å, whole assembly at 5.9 Å
[2] = biological target: the molecule itself; test: as above

Molecule | stoichiometry N [1] | binding result [2]
human MALT1 isoform B (T29-G722), in the filament sample after PreScission treatment (domain or fragment) | 1 | 
human BCL10 (full length), GST-tag removed (natural protein, UniProt O95999 1-233, looked up, BCL10 (B cell lymphoma 10), human, full length; Forms helical filaments together with MALT1 (T29-G722); only residues 10-115 are modelled in the map; also called B cell lymphoma 10; BCL10 wt; not shown: GST, N-terminal, cleaved) MEPTAPSLTEEDLTEVKKDALENLRVYLCEKIIAERHFDHLRAKKILSREDTEEISCRTSSRKRAGKLLDYLQENPKGLDTLVESIRREKTQNFLIQKITDEVLKLRNIKLEHLKGLKCSSCEPFPDGATNNLSRSNSDESNFSEKLRASTVMYHPEGESSTTPFFSTNSSLNLPVLEVGRTENTIFSSTTLPRPGDPGAPPLPPDLQLEEEGTCANSSEMFLPLRSRTVSRQ |  | binds
